Results on five molecules are retold here after article PMC10169808, “Two legume fatty acid amide hydrolase isoforms with distinct preferences for microbial- and plant-derived acylamides” (Scientific Reports, 2023).

The target in series [1] is Medicago truncatula fatty acid amide hydrolase 1 (MtFAAH1) (Medicago truncatula). As to the kind of experiment: SEC; Superdex 200 Increase 10/300 GL; 50 mM Bis-Tris-Propane pH 9.0, 100 mM NaCl, 0.03% DDM; mass interpolated from Kav against standards, mean elution volume of six purifications, DDM micelle (about 70 kDa) taken into account. On the technique in general: In gel filtration, larger molecules generally elute earlier.

Series [2] deals with Medicago truncatula fatty acid amide hydrolase 2a (MtFAAH2a) (Medicago truncatula). As to the kind of experiment: SEC; Superdex 200 Increase 10/300 GL; buffers at pH 7.5, 0.06% DDM; mass interpolated from Kav against standards, mean elution volume of six purifications, DDM micelle (about 70 kDa) taken into account.
Substrate in series [3]: CCCCCCCCCC(=O)CC(=O)N[C@H]1CCOC1=O
As to the kind of experiment: fluorescamine assay of released amine, Michaelis-Menten fit. In kind it is biochemical, Medicago truncatula. The conditions noted are these: 100 mM NaCl, 30 °C, apparent.

Substrate in series [4]: O=C(/C=C/c1ccc(O)cc1)N[C@H]1CCOC1=O
The series is described as above. The conditions noted are these: 100 mM NaCl, 30 °C, apparent. The format is biochemical, Medicago truncatula.

Substrate in series [5]: O=C(/C=C/c1ccc(O)cc1)NCCc1ccc(O)cc1
The description is as above. In kind it is biochemical, Medicago truncatula. Particulars: 100 mM NaCl, 30 °C, apparent.

Substrate in series [6]: CCCCCCCCCCCC(=O)CC(=O)N[C@H]1CCOC1=O
The series is described as above. In kind it is biochemical, Medicago truncatula. The conditions noted are these: 100 mM NaCl, 30 °C, apparent.

Substrate in series [7]: CCCCCCCCCCCC(=O)NCCO
The series is described as above. Particulars: 100 mM NaCl, 30 °C, apparent. The format is biochemical, Medicago truncatula.

Substrate in series [8]: CCCCC/C=C\C=C\C(O)CCCCCCCC(=O)NCCO
The series is described as above. The format is biochemical, Medicago truncatula. Particulars: 100 mM NaCl, 30 °C, apparent.

Substrate in series [9]: CCCCC/C=C\C/C=C\CCCCCCCC(=O)NCCO
The series is described as above. The format is biochemical, Medicago truncatula. The conditions noted are these: 100 mM NaCl, 30 °C, apparent.

Substrate in series [10]: C/C=C/C=C\CC/C=C/C(=O)NCC(C)C
The series is described as above. The format is biochemical, Medicago truncatula. Particulars: 100 mM NaCl, 30 °C, apparent.

Series [11] concerns the molecule itself. As to the kind of experiment: SEC; AtFAAH run as reference for the MtFAAH calculations, in solution with detergent; its conditions are not told in the text (Supplementary Fig. S13).

One may read the stoichiometry N as a count of units in the complex or per binding partner. The Km is the substrate concentration at which the rate is half of its maximum. A word on the kcat: it is the number of substrate molecules converted per active site and unit of time at saturation.

In series [1], “Medicago truncatula fatty acid amide hydrolase 1 (MtFAAH1) (enzyme)” came in with a stoichiometry N of 4.
Turning to “Medicago truncatula fatty acid amide hydrolase 2a (MtFAAH2a) (enzyme)”, the stoichiometry N in series [2] came out at 4.

B1: MtFAAH1 (Medicago truncatula) (protein)
chain: MGKKRVMVPAKDVDLSSIKYEPEIVQAPHLTGFWFRFFVRLIEAPLIGPFLLTMLKKENKIDQLLRNTVFPEEPMFKPEYPPQEKEHSVVELDEDGRPEGRVESALNCLPHYDPAKLWENSSATFRYWKIRDYAYAYQSRKVTPSMVAESIISMIEENGIDKPPTPLLLSFDAAEVRKQAAASTQRFESGNPLSILDGIFIAIKDDIDCHPHPSTGGSTWMHEVRDVKKDAVCVSRLRSCGVIFIGKTNMHEFGMGTTGNNSNYGTARNPHAPDRYTGGSSSGPAAIVASGLCSAALGTDGGGSVRIPSSLCGVVGLKINYGRTSMEGSLCDSGTVEVIGPIASTVEDAMLVYAAMLGASPANRISMKPSTPCLPTLSSDDDTDALRSLRIGIYTPWFNNVHSTEVSDKCEDALNLLSKAHGCEVVEVVIPEIVEMRTAHLVSIGSECLSSLNPDIEDGKGVKLSYDTRTSLALFQSFTAADYVAAQCIRRRIMHYFMEIFKKVDVIVTPTTGMTAPRIPPSALKSGETDMPTTGYLMRFVVPANLLGLPAISVPVGYDKEGLPIGLQVIGRPWAEATILRVAAAVEKLCGESKRRPVTYYDVLGAN
notes: full-length CDS from A17 stem cDNA; C-terminal c-myc and 6xHis tags (pTrcHIS2), E. coli BL21(DE3); estimated homotetramer in DDM; catalytic Ser304
With B1, the Km in [3] (pH 9, 25 mM HEPES, 0.03% DDM) is listed as 5.33 ± 0.6 µM; in [4] (pH 9, 25 mM HEPES, 0.03% DDM), 10.2 ± 2.5 µM; in series [5] (pH 9, 25 mM HEPES, 0.03% DDM), 25.9 ± 7.0 µM; in [6] (pH 9, 25 mM HEPES, 0.03% DDM) it was 5.60 ± 0.6 µM; in [7] (pH 9, 25 mM HEPES, 0.03% DDM), 13.9 ± 3.6 µM; in [8] (pH 9, 25 mM HEPES, 0.03% DDM) it was 5.00 ± 0.4 µM. Also, the Km was determined as 4.83 ± 0.6 µM in series [9] (pH 9, 25 mM HEPES, 0.03% DDM) and 6.81 ± 2.6 µM in [10] (pH 9, 25 mM HEPES, 0.03% DDM). Further, the kcat came to 0.87 s⁻¹ in series [3] (pH 9, 25 mM HEPES, 0.03% DDM); 0.33 s⁻¹ in series [4] (pH 9, 25 mM HEPES, 0.03% DDM); 0.51 s⁻¹ in series [5] (pH 9, 25 mM HEPES, 0.03% DDM); 0.79 s⁻¹ in series [6] (pH 9, 25 mM HEPES, 0.03% DDM); 0.86 s⁻¹ in series [7] (pH 9, 25 mM HEPES, 0.03% DDM); 1.25 s⁻¹ in [8] (pH 9, 25 mM HEPES, 0.03% DDM). Besides, the kcat in series [9] (pH 9, 25 mM HEPES, 0.03% DDM) is 1.05 s⁻¹; in series [10] (pH 9, 25 mM HEPES, 0.03% DDM), 0.32 s⁻¹.

B2: Arabidopsis thaliana fatty acid amide hydrolase (AtFAAH) (enzyme)
chain: MGKYQVMKRASEVDLSTVKYKAETMKAPHLTGLSFKLFVNLLEAPLIGSLIVDYLKKDNGMTKIFRNTVIPEEPMFRPEFPSQEPEHDVVIVGEDESPIDRLETALKCLPQYDPSRSLHADPVSSFRYWKIRDYAYAYRSKLTTPLQVAKRIISIIEEFGYDKPPTPFLIRFDANEVIKQAEASTRRFEQGNPISVLDGIFVTIKDDIDCLPHPTNGGTTWLHEDRSVEKDSAVVSKLRSCGAILLGKANMHELGMGTTGNNSNYGTTRNPHDPKRYTGGSSSGSAAIVAAGLCSAALGTDGGGSVRIPSALCGITGLKTTYGRTDMTGSLCEGGTVEIIGPLASSLEDAFLVYAAILGSSSADRYNLKPSPPCFPKLLSHNGSNAIGSLRLGKYTKWFNDVSSSDISDKCEDILKLLSNNHGCKVVEIVVPELEEMRAAHVISIGSPTLSSLTPYCEAGKNSKLSYDTRTSFAIFRSFSASDYIAAQCLRRRLMEYHLNIFKDVDVIVTPTTGMTAPVIPPDALKNGETNIQVTTDLMRFVLAANLLGFPAISVPVGYDKEGLPIGLQIMGRPWAEATVLGLAAAVEELAPVTKKPAIFYDILNTN
notes: AtFAAH, fatty acid amide hydrolase (a FAAH1 enzyme), Arabidopsis thaliana; also called A. thaliana FAAH; AtFAAH1; source: recombinant, purified
As for B2, in series [11], the “stoichiometry N” value is 2.

B3: MtFAAH2a (Medicago truncatula) (protein)
chain: MGLFKSKRVVYKPVKDVNLGPDSTEFYLQANVKAPRMTGILVKIVAWLLECRIIGAFLLYILKGNNLIHKYITNADIEEPPLYVPLHHFEDHKEQEVKSLDLALTPPDKVQVAIDCLPTTLQRPINGTKPSFNRWTIMDYFRAYSSGDITPHMVAERFIAAVDESSKPTLQMGFFINYNVEDILRQANESTLRYQKGEPISVLDGVPVAIKDEIDCLPYPTTGGTKWLHKQRPCTDDACCIKRLRLCGAVLVGKTNMHELGAGTSGINPHYGATRNPHNASRIAGGSSSGSAAVVSAGLCPVALGVDGGGSVRMPAALCGIVGLKPTFSRIPHSGVIPLNWTVGMVGILAGTVEDSLITYAAISGEIPSRQPSSIPAKINLPLLPLTKSISKIKLAKYGKWFDDCSDDVRICCSGALNKLQGHYGWKIVDVTIPEIEVMRLAHYSTIGSECNTSLDYFQDKNLADFGWDARVALKIYGSFSSMEYIKAQKIRNRQLQFHKKIFSEADIIVSPTTGVTAYPIQDDALKTGELDYVNGAALIRYSIAGNFLGLPAVTVPVGYDKLGLPIGLQFIGRPWAEATLIHLAFAMQTICLSEYRKPAIFYDLLRTN
notes: full-length synthesized CDS (GENEWIZ) subcloned in pTrcHIS2, C-terminal c-myc and 6xHis tags, E. coli; estimated homotetramer in DDM; catalytic Ser311
B3: the Km in [3] (pH 7.5, 25 mM HEPES, 0.06% DDM) is recorded as 13.2 ± 2.1 µM; in [4] (pH 7.5, 25 mM HEPES, 0.06% DDM), 13.8 ± 1.9 µM; in series [5] (pH 7.5, 25 mM HEPES, 0.06% DDM) it was 10.8 ± 1.1 µM; in series [6] (pH 7.5, 25 mM HEPES, 0.06% DDM), 14.6 ± 1.7 µM; in series [7] (pH 7.5, 25 mM HEPES, 0.06% DDM) it was 13.8 ± 1.7 µM; in [8] (pH 7.5, 25 mM HEPES, 0.06% DDM), 18.7 ± 2.9 µM. Besides, the Km in series [9] (pH 7.5, 25 mM HEPES, 0.06% DDM) amounted to 15.1 ± 2.9 µM; in [10] (pH 7.5, 25 mM HEPES, 0.06% DDM), 7.64 ± 1.5 µM. For the same molecule, the kcat in series [3] (pH 7.5, 25 mM HEPES, 0.06% DDM) was determined as 1.11 s⁻¹; in series [4] (pH 7.5, 25 mM HEPES, 0.06% DDM) it was 1.64 s⁻¹; in series [5] (pH 7.5, 25 mM HEPES, 0.06% DDM) it was 1.51 s⁻¹; in series [6] (pH 7.5, 25 mM HEPES, 0.06% DDM), 0.96 s⁻¹; in [7] (pH 7.5, 25 mM HEPES, 0.06% DDM), 1.26 s⁻¹; in series [8] (pH 7.5, 25 mM HEPES, 0.06% DDM) it was 0.35 s⁻¹. The kcat turned out to be 0.60 s⁻¹ in series [9] (pH 7.5, 25 mM HEPES, 0.06% DDM) and 1.28 s⁻¹ in [10] (pH 7.5, 25 mM HEPES, 0.06% DDM).
